To fix the notation:
T1: EsCas13d, nuclease-dead (Eubacterium siraeum, UniProt B0MS50, R295A;H300A;R849A;H854A)
T1 sequence: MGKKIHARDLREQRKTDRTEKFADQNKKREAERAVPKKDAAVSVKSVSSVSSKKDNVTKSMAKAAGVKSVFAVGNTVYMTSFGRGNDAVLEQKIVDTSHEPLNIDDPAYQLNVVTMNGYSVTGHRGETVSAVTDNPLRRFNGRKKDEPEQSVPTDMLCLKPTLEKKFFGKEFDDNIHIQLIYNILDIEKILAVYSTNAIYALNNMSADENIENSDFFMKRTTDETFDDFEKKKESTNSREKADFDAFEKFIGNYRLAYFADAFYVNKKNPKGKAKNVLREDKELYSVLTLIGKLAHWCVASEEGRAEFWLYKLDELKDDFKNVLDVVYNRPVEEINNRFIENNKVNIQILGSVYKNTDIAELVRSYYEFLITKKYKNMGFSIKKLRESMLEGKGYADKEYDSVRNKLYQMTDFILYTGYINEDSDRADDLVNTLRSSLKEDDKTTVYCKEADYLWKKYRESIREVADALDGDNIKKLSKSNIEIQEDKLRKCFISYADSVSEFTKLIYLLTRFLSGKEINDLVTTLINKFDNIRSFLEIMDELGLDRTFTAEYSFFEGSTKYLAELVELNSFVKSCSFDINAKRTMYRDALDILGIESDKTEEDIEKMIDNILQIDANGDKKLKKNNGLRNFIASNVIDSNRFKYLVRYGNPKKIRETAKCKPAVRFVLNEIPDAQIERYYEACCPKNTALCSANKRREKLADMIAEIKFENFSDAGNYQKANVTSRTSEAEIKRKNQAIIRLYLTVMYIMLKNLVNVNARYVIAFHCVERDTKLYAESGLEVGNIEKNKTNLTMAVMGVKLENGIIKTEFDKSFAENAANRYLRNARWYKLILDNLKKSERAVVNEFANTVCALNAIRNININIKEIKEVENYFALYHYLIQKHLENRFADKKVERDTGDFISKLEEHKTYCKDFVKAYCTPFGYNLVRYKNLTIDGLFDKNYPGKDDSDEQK

B1: target 2 MT 5'PFS GUU 3'PFS AAG (mixed)
RNA 1: CACCCGUGCAAAAUUGCAGGGGUCUAAAACCUUCUCCAAAUUGUUUCAUCCU
RNA 2: GGGAAUGGAUCCACAUCUACGAAUUCGUUAGGAUGAAACAAUUUGGAGAAGAAGAGAUCGGAAGAGCACACGU
B2: target 2 MT 5'PFS UGU 3'PFS CAG (mixed)
RNA 1: CACCCGUGCAAAAUUGCAGGGGUCUAAAACCUUCUCCAAAUUGUUUCAUCCU
RNA 2: GGGAAUGGAUCCACAUCUACGAAUUCUGUAGGAUGAAACAAUUUGGAGAAGCAGAGAUCGGAAGAGCACACGU
B3: target 2 MT 5'PFS UCU 3'PFS UGA (mixed)
RNA 1: CACCCGUGCAAAAUUGCAGGGGUCUAAAACCUUCUCCAAAUUGUUUCAUCCU
RNA 2: GGGAAUGGAUCCACAUCUACGAAUUCUCUAGGAUGAAACAAUUUGGAGAAGUGAAGAUCGGAAGAGCACACGU
B4: target 2 MT 5'PFS AGC 3'PFS CGA (mixed)
RNA 1: CACCCGUGCAAAAUUGCAGGGGUCUAAAACCUUCUCCAAAUUGUUUCAUCCU
RNA 2: GGGAAUGGAUCCACAUCUACGAAUUCAGCAGGAUGAAACAAUUUGGAGAAGCGAAGAUCGGAAGAGCACACGU
B5: target 2 MT 5'PFS CUU 3'PFS ACU (mixed)
RNA 1: CACCCGUGCAAAAUUGCAGGGGUCUAAAACCUUCUCCAAAUUGUUUCAUCCU
RNA 2: GGGAAUGGAUCCACAUCUACGAAUUCCUUAGGAUGAAACAAUUUGGAGAAGACUAGAUCGGAAGAGCACACGU
B6: target 2 MT 5'PFS UAU 3'PFS UGC (mixed)
RNA 1: CACCCGUGCAAAAUUGCAGGGGUCUAAAACCUUCUCCAAAUUGUUUCAUCCU
RNA 2: GGGAAUGGAUCCACAUCUACGAAUUCUAUAGGAUGAAACAAUUUGGAGAAGUGCAGAUCGGAAGAGCACACGU
B7: target 2 MT 5'PFS GAG 3'PFS AGC (mixed)
RNA 1: CACCCGUGCAAAAUUGCAGGGGUCUAAAACCUUCUCCAAAUUGUUUCAUCCU
RNA 2: GGGAAUGGAUCCACAUCUACGAAUUCGAGAGGAUGAAACAAUUUGGAGAAGAGCAGAUCGGAAGAGCACACGU
B8: target 2 MT 5'PFS GAG 3'PFS AGA (mixed)
RNA 1: CACCCGUGCAAAAUUGCAGGGGUCUAAAACCUUCUCCAAAUUGUUUCAUCCU
RNA 2: GGGAAUGGAUCCACAUCUACGAAUUCGAGAGGAUGAAACAAUUUGGAGAAGAGAAGAUCGGAAGAGCACACGU
B9: target 2 MT 5'PFS UCU 3'PFS UGC (mixed)
RNA 1: CACCCGUGCAAAAUUGCAGGGGUCUAAAACCUUCUCCAAAUUGUUUCAUCCU
RNA 2: GGGAAUGGAUCCACAUCUACGAAUUCUCUAGGAUGAAACAAUUUGGAGAAGUGCAGAUCGGAAGAGCACACGU
B10: target 2 MT 5'PFS AGC 3'PFS CGC (mixed)
RNA 1: CACCCGUGCAAAAUUGCAGGGGUCUAAAACCUUCUCCAAAUUGUUUCAUCCU
RNA 2: GGGAAUGGAUCCACAUCUACGAAUUCAGCAGGAUGAAACAAUUUGGAGAAGCGCAGAUCGGAAGAGCACACGU
B11: target 2 MT 5'PFS AGA 3'PFS AAG (mixed)
RNA 1: CACCCGUGCAAAAUUGCAGGGGUCUAAAACCUUCUCCAAAUUGUUUCAUCCU
RNA 2: GGGAAUGGAUCCACAUCUACGAAUUCAGAAGGAUGAAACAAUUUGGAGAAGAAGAGAUCGGAAGAGCACACGU
B12: target 2 MT 5'PFS UGU 3'PFS CAC (mixed)
RNA 1: CACCCGUGCAAAAUUGCAGGGGUCUAAAACCUUCUCCAAAUUGUUUCAUCCU
RNA 2: GGGAAUGGAUCCACAUCUACGAAUUCUGUAGGAUGAAACAAUUUGGAGAAGCACAGAUCGGAAGAGCACACGU
B13: target 2 MT 5'PFS CAU 3'PFS AGA (mixed)
RNA 1: CACCCGUGCAAAAUUGCAGGGGUCUAAAACCUUCUCCAAAUUGUUUCAUCCU
RNA 2: GGGAAUGGAUCCACAUCUACGAAUUCCAUAGGAUGAAACAAUUUGGAGAAGAGAAGAUCGGAAGAGCACACGU
B14: target 2 MT 5'PFS GUA 3'PFS CAG (mixed)
RNA 1: CACCCGUGCAAAAUUGCAGGGGUCUAAAACCUUCUCCAAAUUGUUUCAUCCU
RNA 2: GGGAAUGGAUCCACAUCUACGAAUUCGUAAGGAUGAAACAAUUUGGAGAAGCAGAGAUCGGAAGAGCACACGU
B15: target 2 MT 5'PFS AGC 3'PFS CGG (mixed)
RNA 1: CACCCGUGCAAAAUUGCAGGGGUCUAAAACCUUCUCCAAAUUGUUUCAUCCU
RNA 2: GGGAAUGGAUCCACAUCUACGAAUUCAGCAGGAUGAAACAAUUUGGAGAAGCGGAGAUCGGAAGAGCACACGU
B16: target 2 MT 5'PFS CUU 3'PFS ACC (mixed)
RNA 1: CACCCGUGCAAAAUUGCAGGGGUCUAAAACCUUCUCCAAAUUGUUUCAUCCU
RNA 2: GGGAAUGGAUCCACAUCUACGAAUUCCUUAGGAUGAAACAAUUUGGAGAAGACCAGAUCGGAAGAGCACACGU
B17: target 2 MT 5'PFS AGA 3'PFS AAA (mixed)
RNA 1: CACCCGUGCAAAAUUGCAGGGGUCUAAAACCUUCUCCAAAUUGUUUCAUCCU
RNA 2: GGGAAUGGAUCCACAUCUACGAAUUCAGAAGGAUGAAACAAUUUGGAGAAGAAAAGAUCGGAAGAGCACACGU
B18: target 2 MT 5'PFS CUU 3'PFS ACG (mixed)
RNA 1: CACCCGUGCAAAAUUGCAGGGGUCUAAAACCUUCUCCAAAUUGUUUCAUCCU
RNA 2: GGGAAUGGAUCCACAUCUACGAAUUCCUUAGGAUGAAACAAUUUGGAGAAGACGAGAUCGGAAGAGCACACGU
B19: target 2 MT 5'PFS CUU 3'PFS ACA (mixed)
RNA 1: CACCCGUGCAAAAUUGCAGGGGUCUAAAACCUUCUCCAAAUUGUUUCAUCCU
RNA 2: GGGAAUGGAUCCACAUCUACGAAUUCCUUAGGAUGAAACAAUUUGGAGAAGACAAGAUCGGAAGAGCACACGU
B20: target 2 MT 5'PFS GUC 3'PFS CAU (mixed)
RNA 1: CACCCGUGCAAAAUUGCAGGGGUCUAAAACCUUCUCCAAAUUGUUUCAUCCU
RNA 2: GGGAAUGGAUCCACAUCUACGAAUUCGUCAGGAUGAAACAAUUUGGAGAAGCAUAGAUCGGAAGAGCACACGU
B21: target 2 MT 5'PFS CAU 3'PFS AGC (mixed)
RNA 1: CACCCGUGCAAAAUUGCAGGGGUCUAAAACCUUCUCCAAAUUGUUUCAUCCU
RNA 2: GGGAAUGGAUCCACAUCUACGAAUUCCAUAGGAUGAAACAAUUUGGAGAAGAGCAGAUCGGAAGAGCACACGU
B22: target 2 MT 5'PFS UAU 3'PFS UGU (mixed)
RNA 1: CACCCGUGCAAAAUUGCAGGGGUCUAAAACCUUCUCCAAAUUGUUUCAUCCU
RNA 2: GGGAAUGGAUCCACAUCUACGAAUUCUAUAGGAUGAAACAAUUUGGAGAAGUGUAGAUCGGAAGAGCACACGU
B23: target 2 MT 5'PFS UAU 3'PFS UGA (mixed)
RNA 1: CACCCGUGCAAAAUUGCAGGGGUCUAAAACCUUCUCCAAAUUGUUUCAUCCU
RNA 2: GGGAAUGGAUCCACAUCUACGAAUUCUAUAGGAUGAAACAAUUUGGAGAAGUGAAGAUCGGAAGAGCACACGU
B24: target 2 MT 5'PFS AGA 3'PFS AAC (mixed)
RNA 1: CACCCGUGCAAAAUUGCAGGGGUCUAAAACCUUCUCCAAAUUGUUUCAUCCU
RNA 2: GGGAAUGGAUCCACAUCUACGAAUUCAGAAGGAUGAAACAAUUUGGAGAAGAACAGAUCGGAAGAGCACACGU
B25: target 1 insU 3' of 22,insA 3' of 4 (mixed)
RNA 1: CACCCGUGCAAAAAUGCAGGGGUCUAAAACUGAGCGGAUAACCUCUCUAUGG
RNA 2: GGGAAUGGAUCCACAUCUACGAAUUCGUACUCAUAGAGAGGUUAUCCGCAUCACCGAGAUCGGAAGAGCACACGU
B26: target 1 A9C,A16C (mixed)
RNA 1: CACCCGUGCAAAAAUGCAGGGGUCUAAAACUGAGCGGAUAACCUCUCUAUGG
RNA 2: GGGAAUGGAUCCACAUCUACGAAUUCGUACCAUAGCGAGGUUCUCCGCUCACCGAGAUCGGAAGAGCACACGU
B27: target 1 G5A,A20C (mixed)
RNA 1: CACCCGUGCAAAAAUGCAGGGGUCUAAAACUGAGCGGAUAACCUCUCUAUGG
RNA 2: GGGAAUGGAUCCACAUCUACGAAUUCGUACCCUAGAGAGGUUAUCCACUCACCGAGAUCGGAAGAGCACACGU

This note sets out measurements from paper PMC10786891, “Massively parallel profiling of RNA-targeting CRISPR-Cas13d”.

Usually Kd stands for the equilibrium constant for the complex coming apart. Read a low Kd as a tighter complex.

The series deals with T1, EsCas13d, nuclease-dead. Briefly: crRNA (strand 1, pre-loaded); Mg2+; 40 mM Tris-HCl pH 7.5, 150 mM NaCl, 6 mM MgCl2, 1 mM DTT, 0.1% Tween-20, 0.2 mg/ml BSA; 25 C; 10 min per concentration, then washed. As to conditions: tags: His6-TwinStrep-SUMO cleaved; N-terminal SNAP kept (SNAP-Surface 488); label: 3' end held by stalled T7 RNA polymerase.
On to B1, for which binding was characterised by a dissociation constant (Kd) of 9.3 ± 0.8 nM.

B2 showed a Kd of 9 ± 0.9 nM. Next, B3: 14.5 ± 3.5 nM; B4: 15 ± 5 nM; B5: 6.3 ± 0.9 nM. Molecule B6 came in with a Kd of 30 ± 6 nM. The molecule B7 had a dissociation constant (Kd) of 5.7 ± 0.7 nM.

Regarding B8, the affinity, expressed as Kd, was 4.9 ± 0.5 nM. B9: the Kd amounted to 11.7 ± 2.1 nM. In turn, B10 gave a Kd of 7.5 ± 0.7 nM. Next, B11: 7.1 ± 1.3 nM; B12: 16 ± 2.5 nM; B13: 2.8 ± 0.6 nM.

In the case of B14, binding was put at a Kd of 9.6 ± 1.1 nM. As for B15, the Kd was found to be 5.8 ± 1 nM. B16 returned an equilibrium dissociation constant (Kd) of 10.5 ± 2.2 nM. The value for B17 was 4.5 ± 1.2 nM.

Take B18: the dissociation constant Kd was 4.4 ± 0.5 nM.

The molecule B19 returned a Kd of 4.9 ± 0.6 nM. On to B20, for which the Kd was 10.3 ± 1.4 nM. With B21, binding was put at a Kd of 3 ± 0.4 nM. Compared with the last molecule, the Kd is about 3.4-fold lower. Molecule B22 returned a dissociation constant (Kd) of 29.1 ± 3.4 nM. The value for B23 was 37 ± 9 nM; that for B24 was 5.8 ± 1 nM; that for B25 was 23 ± 1.9 nM.

Molecule B26 registered an equilibrium dissociation constant (Kd) of 86 ± 16 nM. The value for B27 was 88 ± 13 nM.
